Results from article PMC5655547, “A General Strategy for Discovery of Inhibitors and Activators of RING and U-box E3 Ligases with Ubiquitin Variants” (Molecular Cell, 2017).
Values belong to the binder of their own block, whether it stands above or below them.

Key:
[1] = target: T1, UbcH5B S22R C85K-Ub (stable conjugate) (UniProt P62837 1-147; P0CG48 1-76, S22R | C85K, stably conjugated to Ub (C85K-Ub)); assay: SPR; Biacore T200, CM-5 chip, 25°C; GST-tagged E3 captured on anti-GST (1,000-2,000 RU); analyte in 25 mM Tris-HCl pH 7.6, 150 mM NaCl, 0.1 mg/ml BSA, 1 mM DTT, 0.005% Tween-20; steady-state affinity; GST alone subtracted; conditions: both partners purified
T1 construct: UbcH5B with S22R and C85K; ubiquitin; mimic of UbcH5B~Ub; also called UbcH5B C85K S22R–Ub; source: made from purified Arabidopsis Uba1, UbcH5B C85K S22R and His-GST-Ub; purified (Ni2+ agarose, TEV cleavage, Source 15S, Superdex 75)

[2] = target: the molecule itself; assay: crystal structure; XR and UbV.XR mixed 1:1.2; sitting drop, 0.1 M NaHEPES pH 7.5, 1.4 M tri-Na citrate; 1.57 Å

- Kd [1]: 12.2 µM
B1: GST-tagged RING domain of XIAP (XR, residues 434-C) (domain or fragment, UniProt P98170 434-497, looked up)
chain: EISTEEQLRRLQEEKLCKICMDRNIAIVFVPCGHLVTCKQCAEAVDKCPMCYTVITFKQKIFMS
notes: XIAP RING domain, residues 434 to the C terminus; also called GST-XR; HisGST-XR; source: E. coli BL21(λDE3) GOLD, purified (glutathione agarose); not shown: His tag, N-terminal, kept

B2: RING domain of XIAP (XR, residues 434-C), tag removed (domain or fragment, UniProt P98170 434-497, looked up)
chain: B1 chain
notes: XIAP RING domain, residues 434 to the C terminus; dimeric RING in the crystal; not shown: His-GST, N-terminal, cleaved
- stoichiometry N [2]: 2
